Earlier results as cited in publication PMC5033469.

Target: CD11c I domain (Homo sapiens) (UniProt P20702)
Sequence (P20702 165-339): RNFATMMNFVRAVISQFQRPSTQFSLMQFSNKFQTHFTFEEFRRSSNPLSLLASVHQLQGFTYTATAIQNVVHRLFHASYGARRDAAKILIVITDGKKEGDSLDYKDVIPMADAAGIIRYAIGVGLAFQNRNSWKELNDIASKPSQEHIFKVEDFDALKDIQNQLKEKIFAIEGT

Chain of fibrinogen (P02671 36-866): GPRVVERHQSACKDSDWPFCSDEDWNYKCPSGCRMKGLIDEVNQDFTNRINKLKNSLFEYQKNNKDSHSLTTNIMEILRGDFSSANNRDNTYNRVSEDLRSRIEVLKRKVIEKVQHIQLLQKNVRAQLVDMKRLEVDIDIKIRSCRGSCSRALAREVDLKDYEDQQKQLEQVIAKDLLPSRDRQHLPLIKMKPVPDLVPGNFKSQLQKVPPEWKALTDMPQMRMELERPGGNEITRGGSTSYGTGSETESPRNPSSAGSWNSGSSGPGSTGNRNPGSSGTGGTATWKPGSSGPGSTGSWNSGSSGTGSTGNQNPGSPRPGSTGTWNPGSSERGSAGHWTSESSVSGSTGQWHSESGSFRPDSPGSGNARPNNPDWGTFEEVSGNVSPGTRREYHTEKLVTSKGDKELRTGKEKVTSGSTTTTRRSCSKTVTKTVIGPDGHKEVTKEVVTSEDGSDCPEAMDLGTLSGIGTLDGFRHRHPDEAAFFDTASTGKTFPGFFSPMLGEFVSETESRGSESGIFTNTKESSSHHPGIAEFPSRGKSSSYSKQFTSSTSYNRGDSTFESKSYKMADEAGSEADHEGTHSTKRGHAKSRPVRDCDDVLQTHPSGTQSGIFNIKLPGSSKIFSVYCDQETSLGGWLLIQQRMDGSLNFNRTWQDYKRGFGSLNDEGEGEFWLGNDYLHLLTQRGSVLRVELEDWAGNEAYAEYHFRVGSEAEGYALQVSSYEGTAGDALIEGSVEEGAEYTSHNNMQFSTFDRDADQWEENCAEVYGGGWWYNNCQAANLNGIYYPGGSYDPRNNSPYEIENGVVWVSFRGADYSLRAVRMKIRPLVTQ
Chain of fibrinogen (P02675 45-491, further chain): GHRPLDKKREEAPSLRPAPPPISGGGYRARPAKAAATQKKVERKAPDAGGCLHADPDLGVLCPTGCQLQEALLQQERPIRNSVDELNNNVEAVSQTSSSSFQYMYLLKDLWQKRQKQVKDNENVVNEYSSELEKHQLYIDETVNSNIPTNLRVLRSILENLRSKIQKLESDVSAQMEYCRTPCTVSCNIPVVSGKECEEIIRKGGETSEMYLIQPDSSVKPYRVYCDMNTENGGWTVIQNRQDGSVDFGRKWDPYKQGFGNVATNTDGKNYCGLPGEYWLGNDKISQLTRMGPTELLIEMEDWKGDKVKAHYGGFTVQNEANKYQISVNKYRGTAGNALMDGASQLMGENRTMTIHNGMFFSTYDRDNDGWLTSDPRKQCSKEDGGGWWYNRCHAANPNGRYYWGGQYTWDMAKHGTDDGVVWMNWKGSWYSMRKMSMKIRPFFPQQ
Chain of fibrinogen (P02679 27-453, further chain): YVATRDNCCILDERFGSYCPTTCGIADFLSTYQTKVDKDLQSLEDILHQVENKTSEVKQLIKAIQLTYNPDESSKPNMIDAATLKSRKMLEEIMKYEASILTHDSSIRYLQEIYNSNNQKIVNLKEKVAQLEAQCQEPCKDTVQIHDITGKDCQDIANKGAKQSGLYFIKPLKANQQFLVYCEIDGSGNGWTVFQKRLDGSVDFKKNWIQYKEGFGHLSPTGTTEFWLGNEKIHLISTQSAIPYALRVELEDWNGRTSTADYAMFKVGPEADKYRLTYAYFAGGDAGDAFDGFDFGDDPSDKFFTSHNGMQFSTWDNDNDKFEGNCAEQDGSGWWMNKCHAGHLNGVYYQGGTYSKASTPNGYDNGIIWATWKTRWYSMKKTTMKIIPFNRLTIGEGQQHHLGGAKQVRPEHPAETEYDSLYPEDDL

Kd: 50 µM
Substance: fibrinogen (from UniProt P02671)
